The target of this test is T1, CD3 antigen (human, UniProt P07766 23-207).
T1 construct: whole, on cells; also called OKT3 antigen; antigen in the T-cell receptor-CD3 complex
Briefly: competition with Fl-OKT3 on HPB-ALL cells, flow cytometry. In general terms: Flow cytometry measures light scatter and fluorescence of single cells or particles in a stream.

This is an account of results in USRE50178 (CELLTECH R AND D, dated 2024).

B1: OKT3 gL221 / gH341 (JA178), basic grafted product (antibody, human IgG4, V domains shown)
VH: QVQLVESGGGVVQPGRSLRLSCSSSGYTFTRYTMHWVRQAPGKGLEWVAYINPSRGYTNYNQKFKDRFTISRDNSKNTLFLQMDSLRPEDTGVYFCARYYDDHYCLDYWGQGTTLTVSS
VL: DIQMTQSPSSLSASVGDRVTITCSASSSVSYMNWYQQTPGKAPKLLIYDTSKLASGVPSRFSGSGSGTDYTFTISSLQPEDIATYYCQQWSSNPFTFGQGTKLQITR
notes: Human IgG4 and human kappa constant regions; also called minimally grafted OKT3 antibody
Regarding B1, the binding result is reported as “no binding”.
